The values that follow are results of earlier work, collected in US20140303060A1, “PROCESS FOR DEGRADING A BIOFILM ON SURFACES OF OBJECTS” (Fraunhofer Gesellschaft Zur Foerderung der angwandten …, priority 2011, published 2014).

On to “lysostaphin: zinc-dependent enzyme that cleaves the pentaglycine cross bridges of the bacterial cell wall”, for which the “effect of repeated freezing and thawing on activity” value is given as “reduction of activity”.
